# According to the Human Domainome abundance scans (Beltran et al. 2025):
# ± gives the uncertainty stated by the source.
# B1: GA-binding protein alpha chain, residues 172 to 250; numbered along this chain, Q06546 (parent)
# chain: GYRKEQERLGIPYDPIQWSTDQVLHWVVWVMKEFSMTDIDLTTLNISGRELCSLNQEDFFQRVPRGEILWSHLELLRKY
# Variants of: B1
# Assay: abundance fitness (aPCA) (normalised: wild type 0, dead -1); higher = more abundant; growth selection in yeast, the domain comes from the species named
# Settings: Homo sapiens
row,Variant,abundance fitness
1,GYRKEQEDLGIPYDPIQWSTDQVLHWVVWVMKEFSMTDIDLTTLNISGRELCSLNQEDFFQRVPRGEILWSHLELLRKY,-0.185 ± 0.099
2,GYRKEQEELGIPYDPIQWSTDQVLHWVVWVMKEFSMTDIDLTTLNISGRELCSLNQEDFFQRVPRGEILWSHLELLRKY,-0.054 ± 0.052
3,GYRKEQEFLGIPYDPIQWSTDQVLHWVVWVMKEFSMTDIDLTTLNISGRELCSLNQEDFFQRVPRGEILWSHLELLRKY,-0.368 ± 0.1
4,GYRKEQEGLGIPYDPIQWSTDQVLHWVVWVMKEFSMTDIDLTTLNISGRELCSLNQEDFFQRVPRGEILWSHLELLRKY,-0.363 ± 0.036
5,GYRKEQEHLGIPYDPIQWSTDQVLHWVVWVMKEFSMTDIDLTTLNISGRELCSLNQEDFFQRVPRGEILWSHLELLRKY,-0.21 ± 0.1
6,GYRKEQEILGIPYDPIQWSTDQVLHWVVWVMKEFSMTDIDLTTLNISGRELCSLNQEDFFQRVPRGEILWSHLELLRKY,-0.222 ± 0.1
7,GYRKEQEKLGIPYDPIQWSTDQVLHWVVWVMKEFSMTDIDLTTLNISGRELCSLNQEDFFQRVPRGEILWSHLELLRKY,-0.024 ± 0.064
8,GYRKEQELLGIPYDPIQWSTDQVLHWVVWVMKEFSMTDIDLTTLNISGRELCSLNQEDFFQRVPRGEILWSHLELLRKY,-0.06 ± 0.035
9,GYRKEQEMLGIPYDPIQWSTDQVLHWVVWVMKEFSMTDIDLTTLNISGRELCSLNQEDFFQRVPRGEILWSHLELLRKY,-0.133 ± 0.058
10,GYRKEQENLGIPYDPIQWSTDQVLHWVVWVMKEFSMTDIDLTTLNISGRELCSLNQEDFFQRVPRGEILWSHLELLRKY,-0.191 ± 0.12
11,GYRKEQEPLGIPYDPIQWSTDQVLHWVVWVMKEFSMTDIDLTTLNISGRELCSLNQEDFFQRVPRGEILWSHLELLRKY,-0.596 ± 0.07
12,GYRKEQEQLGIPYDPIQWSTDQVLHWVVWVMKEFSMTDIDLTTLNISGRELCSLNQEDFFQRVPRGEILWSHLELLRKY,-0.158 ± 0.061
13,GYRKEQETLGIPYDPIQWSTDQVLHWVVWVMKEFSMTDIDLTTLNISGRELCSLNQEDFFQRVPRGEILWSHLELLRKY,-0.117 ± 0.064
14,GYRKEQERAGIPYDPIQWSTDQVLHWVVWVMKEFSMTDIDLTTLNISGRELCSLNQEDFFQRVPRGEILWSHLELLRKY,-0.08 ± 0.053
15,GYRKEQERDGIPYDPIQWSTDQVLHWVVWVMKEFSMTDIDLTTLNISGRELCSLNQEDFFQRVPRGEILWSHLELLRKY,-0.368 ± 0.095
16,GYRKEQEREGIPYDPIQWSTDQVLHWVVWVMKEFSMTDIDLTTLNISGRELCSLNQEDFFQRVPRGEILWSHLELLRKY,-0.117 ± 0.067
17,GYRKEQERGGIPYDPIQWSTDQVLHWVVWVMKEFSMTDIDLTTLNISGRELCSLNQEDFFQRVPRGEILWSHLELLRKY,-0.373 ± 0.035
18,GYRKEQERIGIPYDPIQWSTDQVLHWVVWVMKEFSMTDIDLTTLNISGRELCSLNQEDFFQRVPRGEILWSHLELLRKY,-0.081 ± 0.13
19,GYRKEQERKGIPYDPIQWSTDQVLHWVVWVMKEFSMTDIDLTTLNISGRELCSLNQEDFFQRVPRGEILWSHLELLRKY,-0.061 ± 0.096
20,GYRKEQERMGIPYDPIQWSTDQVLHWVVWVMKEFSMTDIDLTTLNISGRELCSLNQEDFFQRVPRGEILWSHLELLRKY,0.011 ± 0.038
21,GYRKEQERNGIPYDPIQWSTDQVLHWVVWVMKEFSMTDIDLTTLNISGRELCSLNQEDFFQRVPRGEILWSHLELLRKY,-0.08 ± 0.079
22,GYRKEQERPGIPYDPIQWSTDQVLHWVVWVMKEFSMTDIDLTTLNISGRELCSLNQEDFFQRVPRGEILWSHLELLRKY,-0.815 ± 0.096
23,GYRKEQERQGIPYDPIQWSTDQVLHWVVWVMKEFSMTDIDLTTLNISGRELCSLNQEDFFQRVPRGEILWSHLELLRKY,0.016 ± 0.055

row,Variant,abundance fitness
1,GYRKEQERRGIPYDPIQWSTDQVLHWVVWVMKEFSMTDIDLTTLNISGRELCSLNQEDFFQRVPRGEILWSHLELLRKY,-0.047 ± 0.037
2,GYRKEQERSGIPYDPIQWSTDQVLHWVVWVMKEFSMTDIDLTTLNISGRELCSLNQEDFFQRVPRGEILWSHLELLRKY,-0.174 ± 0.046
3,GYRKEQERTGIPYDPIQWSTDQVLHWVVWVMKEFSMTDIDLTTLNISGRELCSLNQEDFFQRVPRGEILWSHLELLRKY,-0.11 ± 0.055
4,GYRKEQERVGIPYDPIQWSTDQVLHWVVWVMKEFSMTDIDLTTLNISGRELCSLNQEDFFQRVPRGEILWSHLELLRKY,-0.013 ± 0.035
5,GYRKEQERYGIPYDPIQWSTDQVLHWVVWVMKEFSMTDIDLTTLNISGRELCSLNQEDFFQRVPRGEILWSHLELLRKY,-0.133 ± 0.082
6,GYRKEQERLAIPYDPIQWSTDQVLHWVVWVMKEFSMTDIDLTTLNISGRELCSLNQEDFFQRVPRGEILWSHLELLRKY,-0.068 ± 0.035
7,GYRKEQERLCIPYDPIQWSTDQVLHWVVWVMKEFSMTDIDLTTLNISGRELCSLNQEDFFQRVPRGEILWSHLELLRKY,-0.079 ± 0.05
8,GYRKEQERLDIPYDPIQWSTDQVLHWVVWVMKEFSMTDIDLTTLNISGRELCSLNQEDFFQRVPRGEILWSHLELLRKY,-0.196 ± 0.087
9,GYRKEQERLEIPYDPIQWSTDQVLHWVVWVMKEFSMTDIDLTTLNISGRELCSLNQEDFFQRVPRGEILWSHLELLRKY,-0.096 ± 0.038
10,GYRKEQERLFIPYDPIQWSTDQVLHWVVWVMKEFSMTDIDLTTLNISGRELCSLNQEDFFQRVPRGEILWSHLELLRKY,-0.272 ± 0.079
11,GYRKEQERLHIPYDPIQWSTDQVLHWVVWVMKEFSMTDIDLTTLNISGRELCSLNQEDFFQRVPRGEILWSHLELLRKY,-0.07 ± 0.085
12,GYRKEQERLIIPYDPIQWSTDQVLHWVVWVMKEFSMTDIDLTTLNISGRELCSLNQEDFFQRVPRGEILWSHLELLRKY,-0.562 ± 0.23
13,GYRKEQERLKIPYDPIQWSTDQVLHWVVWVMKEFSMTDIDLTTLNISGRELCSLNQEDFFQRVPRGEILWSHLELLRKY,-0.041 ± 0.051
14,GYRKEQERLLIPYDPIQWSTDQVLHWVVWVMKEFSMTDIDLTTLNISGRELCSLNQEDFFQRVPRGEILWSHLELLRKY,-0.158 ± 0.03
15,GYRKEQERLMIPYDPIQWSTDQVLHWVVWVMKEFSMTDIDLTTLNISGRELCSLNQEDFFQRVPRGEILWSHLELLRKY,-0.096 ± 0.059
16,GYRKEQERLNIPYDPIQWSTDQVLHWVVWVMKEFSMTDIDLTTLNISGRELCSLNQEDFFQRVPRGEILWSHLELLRKY,0.028 ± 0.075
17,GYRKEQERLPIPYDPIQWSTDQVLHWVVWVMKEFSMTDIDLTTLNISGRELCSLNQEDFFQRVPRGEILWSHLELLRKY,-0.978 ± 0.13
18,GYRKEQERLQIPYDPIQWSTDQVLHWVVWVMKEFSMTDIDLTTLNISGRELCSLNQEDFFQRVPRGEILWSHLELLRKY,0.01 ± 0.057
19,GYRKEQERLRIPYDPIQWSTDQVLHWVVWVMKEFSMTDIDLTTLNISGRELCSLNQEDFFQRVPRGEILWSHLELLRKY,-0.085 ± 0.033
20,GYRKEQERLTIPYDPIQWSTDQVLHWVVWVMKEFSMTDIDLTTLNISGRELCSLNQEDFFQRVPRGEILWSHLELLRKY,-0.411 ± 0.069
21,GYRKEQERLVIPYDPIQWSTDQVLHWVVWVMKEFSMTDIDLTTLNISGRELCSLNQEDFFQRVPRGEILWSHLELLRKY,-0.383 ± 0.037
22,GYRKEQERLWIPYDPIQWSTDQVLHWVVWVMKEFSMTDIDLTTLNISGRELCSLNQEDFFQRVPRGEILWSHLELLRKY,-0.464 ± 0.045
23,GYRKEQERLGAPYDPIQWSTDQVLHWVVWVMKEFSMTDIDLTTLNISGRELCSLNQEDFFQRVPRGEILWSHLELLRKY,-0.651 ± 0.058

row,Variant,abundance fitness
1,GYRKEQERLGCPYDPIQWSTDQVLHWVVWVMKEFSMTDIDLTTLNISGRELCSLNQEDFFQRVPRGEILWSHLELLRKY,-0.487 ± 0.058
2,GYRKEQERLGDPYDPIQWSTDQVLHWVVWVMKEFSMTDIDLTTLNISGRELCSLNQEDFFQRVPRGEILWSHLELLRKY,-0.921 ± 0.34
3,GYRKEQERLGEPYDPIQWSTDQVLHWVVWVMKEFSMTDIDLTTLNISGRELCSLNQEDFFQRVPRGEILWSHLELLRKY,-0.924 ± 0.13
4,GYRKEQERLGFPYDPIQWSTDQVLHWVVWVMKEFSMTDIDLTTLNISGRELCSLNQEDFFQRVPRGEILWSHLELLRKY,-0.263 ± 0.071
5,GYRKEQERLGGPYDPIQWSTDQVLHWVVWVMKEFSMTDIDLTTLNISGRELCSLNQEDFFQRVPRGEILWSHLELLRKY,-0.752 ± 0.046
6,GYRKEQERLGHPYDPIQWSTDQVLHWVVWVMKEFSMTDIDLTTLNISGRELCSLNQEDFFQRVPRGEILWSHLELLRKY,-0.644 ± 0.25
7,GYRKEQERLGKPYDPIQWSTDQVLHWVVWVMKEFSMTDIDLTTLNISGRELCSLNQEDFFQRVPRGEILWSHLELLRKY,-1.21 ± 0.44
8,GYRKEQERLGLPYDPIQWSTDQVLHWVVWVMKEFSMTDIDLTTLNISGRELCSLNQEDFFQRVPRGEILWSHLELLRKY,-0.191 ± 0.035
9,GYRKEQERLGMPYDPIQWSTDQVLHWVVWVMKEFSMTDIDLTTLNISGRELCSLNQEDFFQRVPRGEILWSHLELLRKY,-0.312 ± 0.045
10,GYRKEQERLGNPYDPIQWSTDQVLHWVVWVMKEFSMTDIDLTTLNISGRELCSLNQEDFFQRVPRGEILWSHLELLRKY,-0.818 ± 0.22
11,GYRKEQERLGPPYDPIQWSTDQVLHWVVWVMKEFSMTDIDLTTLNISGRELCSLNQEDFFQRVPRGEILWSHLELLRKY,-0.928 ± 0.13
12,GYRKEQERLGQPYDPIQWSTDQVLHWVVWVMKEFSMTDIDLTTLNISGRELCSLNQEDFFQRVPRGEILWSHLELLRKY,-1.01 ± 0.33
13,GYRKEQERLGRPYDPIQWSTDQVLHWVVWVMKEFSMTDIDLTTLNISGRELCSLNQEDFFQRVPRGEILWSHLELLRKY,-0.808 ± 0.062
14,GYRKEQERLGSPYDPIQWSTDQVLHWVVWVMKEFSMTDIDLTTLNISGRELCSLNQEDFFQRVPRGEILWSHLELLRKY,-0.842 ± 0.075
15,GYRKEQERLGTPYDPIQWSTDQVLHWVVWVMKEFSMTDIDLTTLNISGRELCSLNQEDFFQRVPRGEILWSHLELLRKY,-0.75 ± 0.089
16,GYRKEQERLGVPYDPIQWSTDQVLHWVVWVMKEFSMTDIDLTTLNISGRELCSLNQEDFFQRVPRGEILWSHLELLRKY,-0.342 ± 0.031
17,GYRKEQERLGYPYDPIQWSTDQVLHWVVWVMKEFSMTDIDLTTLNISGRELCSLNQEDFFQRVPRGEILWSHLELLRKY,-0.238 ± 0.061
18,GYRKEQERLGIAYDPIQWSTDQVLHWVVWVMKEFSMTDIDLTTLNISGRELCSLNQEDFFQRVPRGEILWSHLELLRKY,-0.3 ± 0.033
19,GYRKEQERLGICYDPIQWSTDQVLHWVVWVMKEFSMTDIDLTTLNISGRELCSLNQEDFFQRVPRGEILWSHLELLRKY,-0.494 ± 0.072
20,GYRKEQERLGIDYDPIQWSTDQVLHWVVWVMKEFSMTDIDLTTLNISGRELCSLNQEDFFQRVPRGEILWSHLELLRKY,-0.34 ± 0.1
21,GYRKEQERLGIEYDPIQWSTDQVLHWVVWVMKEFSMTDIDLTTLNISGRELCSLNQEDFFQRVPRGEILWSHLELLRKY,-0.478 ± 0.069
22,GYRKEQERLGIFYDPIQWSTDQVLHWVVWVMKEFSMTDIDLTTLNISGRELCSLNQEDFFQRVPRGEILWSHLELLRKY,-0.949 ± 0.22
23,GYRKEQERLGIGYDPIQWSTDQVLHWVVWVMKEFSMTDIDLTTLNISGRELCSLNQEDFFQRVPRGEILWSHLELLRKY,-0.577 ± 0.041
